Biological target: PICK1 PDZ domain with an additional C-terminal fusion (NKLQQSAV), oxidized, bCPA-treated dimer (UniProt Q9NRD5)
Experiment: crystal structure; dimeric bCPA-treated PICK1 PDZ with compound 1o; space group P3_(2), one disulfide bridged dimer per asymmetric unit; 1.69 Å

In the case of “PICK1 PDZ domain with an additional C-terminal fusion (NKLQQSAV), oxidized, bCPA-treated dimer (from UniProt Q9NRD5 1-105) (domain or fragment)”, the stoichiometry N is reported as 2.
